The text below walks through data of patent publication US20070071744A1 (published 2007).

Ends that are not written are not given here.

Common to all, as to experiment: PepSpot peptide array
The target in one experiment is T1, peptide 79 (human).
T1 peptide: Ac-PERWYRASFPIIT
In a few lines:
(§1)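 Peptides synthesized on cellulose membranes were blocked, then probed with a primary antibody followed by an HRP-labelled secondary, or with an HRP-labelled primary alone. After T-TBS/TBS washes, chemiluminescence was recorded as light units per peptide as single measurements. A secondary-only incubation served as the non-specific binding control.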

The next experiment deals with T2, peptide 37 (human).
T2 peptide: Ac-LFIPAMKRSLAGR
The procedure, abridged: as §1

For a further experiment, the target named is T3, peptide 121 (human).
T3 peptide: Ac-TETSRSITTSPKE
The procedure, abridged: as §1

A further experiment has as its target T4, peptide 30 (human).
T4 peptide: Ac-LEKLSSSRYQDQA
In a few lines:
as §1

B1: monoclonal antibody hGP 5C4 (antibody, V domains shown)
VH: EVKLQESGGGLVQPGRSLKLSCTASGFTFSDYFMSWVRQAPTRGLEWVASISSGGASAYWRDSVKGRFTISRDNAKSALYLQMDSLRSEDTATYFCARGELDFDYWGQGVMVAVSS
VL: ADPNSTLLSASVGDRVTLNCTASQNVYKNLAWYQQKLGEAPRLLLYSANSQTGIPSRFSGSGSGPDFTLTISSLQPEDVASYFCQQYYSGNTFGAGTKLELKR
notes: Rat hybridoma antibody (Lou/C rats), heavy chain gamma 2a, light chain kappa; also called ab 5C4; anti-GPVI mAb 5C4
For the molecule B1, the “LU (Light Units)” value turned out to be 119 LU in the experiment with peptide 79, 1120 LU with peptide 37, 186 LU in the experiment with peptide 121 and 184 LU in the experiment with peptide 30. Moreover, in the experiment with peptide 37, the “signal to noise ratio” value is around 4 ratio.
